The record followed here is publication PMC3581772, “Protease-activated alpha-2-macroglobulin can inhibit amyloid formation via two distinct mechanisms” (Febs Letters, 2013).

This data set deals with the molecule itself. The data set is described as follows: thioflavin T fluorescence of fibril formation; I59T lysozyme 6.8 μM, 0.1 M citrate buffer pH 5.0, 25 μM ThT, 60 °C, with stirring; self-association into fibrils.

B1: I59T human lysozyme (natural protein, UniProt P61626 19-148, looked up)
chain: KVFERCELARTLKRLGMDGYRGISLANWMCLAKWESGYNTRATNYNAGDRSTDYGIFQTNSRYWCNDGKTPGAVNACHLSCSALLQDNIADAVACAKRVVRDPQGIRAWVAWRNRCQNRDVRQYVQGCGV
notes: human lysozyme, non-natural variant I59T; monomer 14.7 kDa; also called I59T lysozyme; source: expressed and purified as previously described [16]
On to B1, for which the binding result is reported as “binds”.
